Data set [1] concerns the target T1, Dna2 E675A (nuclease-defective) (UniProt P38859 1-1522, E675A). The experiment in a line: DNase I footprinting.
Data set [2] concerns the target T1, Dna2 E675A (nuclease-defective). The experiment in a line: EMSA. On the technique in general: Mobility shift assays separate free from complexed probe on a gel.
For data set [3] the target is unchanged. The experiment in a line: competition.
Data set [4] shares this target. The data set is described as follows: competition. This is another data set of the same source.

Data on eight molecules can be found in paper PMC2817469.

As usually defined, the Kd is the free concentration of one partner at which half of the binding sites on the other are occupied at equilibrium, for simple one-to-one binding.

T1 sequence (P38859 whole entry E675A): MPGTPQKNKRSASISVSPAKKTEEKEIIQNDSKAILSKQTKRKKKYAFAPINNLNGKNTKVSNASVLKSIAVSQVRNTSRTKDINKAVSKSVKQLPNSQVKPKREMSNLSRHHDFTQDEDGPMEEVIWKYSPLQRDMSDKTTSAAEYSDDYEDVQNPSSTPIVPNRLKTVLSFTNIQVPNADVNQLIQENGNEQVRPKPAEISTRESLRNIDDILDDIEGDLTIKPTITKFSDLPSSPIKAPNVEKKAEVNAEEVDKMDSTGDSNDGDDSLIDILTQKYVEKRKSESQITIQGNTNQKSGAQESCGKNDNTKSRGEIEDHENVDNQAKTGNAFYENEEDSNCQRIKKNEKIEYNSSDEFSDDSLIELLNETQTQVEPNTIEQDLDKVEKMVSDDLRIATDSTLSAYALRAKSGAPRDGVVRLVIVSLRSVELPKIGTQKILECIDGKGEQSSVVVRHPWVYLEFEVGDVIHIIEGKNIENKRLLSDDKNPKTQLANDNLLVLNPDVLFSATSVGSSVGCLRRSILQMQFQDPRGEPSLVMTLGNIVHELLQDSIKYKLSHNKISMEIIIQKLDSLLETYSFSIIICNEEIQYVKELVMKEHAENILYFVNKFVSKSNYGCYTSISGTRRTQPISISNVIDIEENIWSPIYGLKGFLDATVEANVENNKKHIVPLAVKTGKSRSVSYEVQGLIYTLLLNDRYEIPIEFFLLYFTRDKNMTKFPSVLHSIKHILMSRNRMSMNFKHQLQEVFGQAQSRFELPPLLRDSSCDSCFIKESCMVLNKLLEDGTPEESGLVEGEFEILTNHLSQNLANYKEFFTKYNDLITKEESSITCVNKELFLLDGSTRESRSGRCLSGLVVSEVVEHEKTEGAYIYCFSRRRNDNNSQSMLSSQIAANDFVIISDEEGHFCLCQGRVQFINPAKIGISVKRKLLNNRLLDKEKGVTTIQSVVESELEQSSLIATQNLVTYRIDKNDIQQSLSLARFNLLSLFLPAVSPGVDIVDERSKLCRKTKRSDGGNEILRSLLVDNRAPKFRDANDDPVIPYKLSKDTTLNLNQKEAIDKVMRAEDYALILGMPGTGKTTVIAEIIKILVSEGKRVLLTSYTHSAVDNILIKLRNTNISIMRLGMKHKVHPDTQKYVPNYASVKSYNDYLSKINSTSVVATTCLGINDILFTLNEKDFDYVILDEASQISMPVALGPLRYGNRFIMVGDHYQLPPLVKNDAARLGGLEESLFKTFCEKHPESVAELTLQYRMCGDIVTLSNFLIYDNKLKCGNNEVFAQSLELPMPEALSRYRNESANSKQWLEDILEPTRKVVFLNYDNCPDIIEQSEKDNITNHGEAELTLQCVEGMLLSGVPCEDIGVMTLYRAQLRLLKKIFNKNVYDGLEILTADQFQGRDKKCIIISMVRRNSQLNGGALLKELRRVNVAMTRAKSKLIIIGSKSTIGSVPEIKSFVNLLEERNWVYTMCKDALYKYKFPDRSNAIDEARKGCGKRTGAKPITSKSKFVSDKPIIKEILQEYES

B1: Nick (structured_DNA)
DNA: ACATGATGCATCGTTAGGCGATTCCGCCTAACGATGCATCATGTCGCGAACCCTATTTAGGGTTCGCG
Turning to B1, the binding result in data set [1] is “binds”.

B2: Double-Flap (structured_DNA)
DNA: TTCACGAGATTTACTTATTTCACTGCGGCTACATGATGCATCGTTAGGCGATTCCGCCTAACGATGCATCATGTCGCGAACCCTATTTAGGGTTCGCGT
B2: in data set [2], binding was characterised by a dissociation constant (Kd) of 7 nM. This lies in the single-digit nanomolar range.

Consider TTCACGAGATTTACTTATTTCACTGCGGCT (ssDNA) [ssDNA 30-nt], for which the binding result in data set [3] is “binds”.

B3: Fork (structured_DNA)
DNA: TTCACGAGATTTACTTATTTCACTGCGGCTACATGATGCATCGTTAGGCGATTCCGCCTAACGATGCATCATGTTGTTACCCTTTGA
In turn, B3 yielded a Kd in data set [2] of 9.2 nM.

B4: 5'-Tail (structured_DNA)
DNA: TTCACGAGATTTACTTATTTCACTGCGGCTACATGATGCATCGTTAGGCGATTCCGCCTAACGATGCATCATGT
With B4, the dissociation constant Kd in data set [2] turned out to be 8.5 nM.

B5: Gap (20-nt) (structured_DNA)
DNA: ACATGATGCATCGTTAGGCGATTCCGCCTAACGATGCATCATGTTTTTTTTTTTTTTTTTTTTTCGCGAACCCTATTTAGGGTTCGCG
Take B5: the Kd in data set [2] came to 6.7 nM.

B6: Flap (30-nt 5'-flap) (structured_DNA)
DNA: TTCACGAGATTTACTTATTTCACTGCGGCTACATGATGCATCGTTAGGCGATTCCGCCTAACGATGCATCATGTCGCGAACCCTATTTAGGGTTCGCG
Regarding B6, binding in data set [2] was characterised by a dissociation constant (Kd) of 8.4 nM. This Kd and that of the molecule before are within 1.5-fold of each other.

B7: Biotin-Flap, streptavidin-blocked (structured_DNA)
DNA: B6 DNA
modifications: 5' biotin
For B7, the binding result in data set [4] is reported as “binds”.
